This note sets out measurements from publication PMC9636275 (Nature Communications, 2022).

“Also recorded” adds a separate entry of the source. Where two headings read alike, the source gives them in different places.

In series [1] the target is T1, CobB (Escherichia coli, UniProt P75960).
T1 sequence (P75960 1-279): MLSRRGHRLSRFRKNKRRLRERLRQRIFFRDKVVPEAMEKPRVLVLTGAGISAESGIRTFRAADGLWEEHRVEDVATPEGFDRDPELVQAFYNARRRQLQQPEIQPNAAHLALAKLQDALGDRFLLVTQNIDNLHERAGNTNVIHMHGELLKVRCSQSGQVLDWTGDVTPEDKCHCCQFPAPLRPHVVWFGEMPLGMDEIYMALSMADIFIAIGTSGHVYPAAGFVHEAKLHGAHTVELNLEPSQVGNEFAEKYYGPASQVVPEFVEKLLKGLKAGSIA
The following applies: for kcat: 37 °C, MALDI-TOF MS, mean ± SEM; for kcat / kcat/Km: n = 3. The method, then: This method was described previously. […] Meanwhile, YiaC was incubated with unmodified peptide ([…], from PncB) in the YiaC reaction buffer. The concentrations of the peptides were 5, 10, 16, 32, 60, and 285 uM, and reaction time were 1, 5, 15, and 30 min. […] 0.1 μl samples mixed with 2,5-dihydroxybenzoic acid (DHB) were analyzed by MS. An acceleration voltage of 20 kV was used. MS data were analyzed using FlexAnalysis software for spectral processing and peak detection. The enzyme kinetics were analyzed by Prism GraphPad 8.0 software.

In series [2] the test system is whole-cell lysates. Put plainly: Immunoblotting of lysine acylation in whole-cell lysates of overexpressing or deficient strains. The class given is cell-based, E. coli. The conditions noted are these: overexpression in E. coli BL21 (λDE3) vs empty pET28a; immunoblot, LB 37 °C. As for the experimental part: All the anti-acyllysine antibodies were purchased from PTM Biolabs Inc. All the synthetic peptides were generated by SciLight Biotechnology, LLC. Antibodies (all diluted 1:1000) and other reagents are listed in Supplementary Data 7.
This method was performed as described previously. In detail, plasmids were constructed to express proteins in E. coli. We used pEASY®-Basic Seamless Cloning and Assembly Kit (TRANS) to construct the plasmids of pET28a-cisY, pET28a-pncB, pET28a-gpmA, pET28a-mdh, pET28a-pykF, and pBR322-pykF-His tag. For mutation, we used the Fast Mutagenesis System (TRANS) to construct the vectors containing point mutated genes. All primers used for PCR are listed in Supplementary Data 7. The constructed vectors of pET28a were transformed into E. coli BL21 (λDE3) for overexpressing strains. The constructed vectors of pBR322 were transformed into E. coli MG1655 and cultured in LB medium containing ampicillin (Amp, 50 μg ml^–1), at 37 °C in shaken flasks at 220 rpm. overnight.
Next, cells were induced with 0.05 mM IPTG at 16 °C overnight followed by harvesting of whole-cell lysates for immunoblotting or protein purification. The proteins were harvested from cultured cells by lysis buffer (20 mM Tris-HCl, pH 8.0, 10 mM MgCl2, 1 mg ml^–1 lysozyme, 50 U ml^–1 nuclease). Then the proteins were mixed with HisPur Ni-NTA Resin and washed by wash buffer (20 mM Na3PO4, 300 mM NaCl, 25 mM imidazole, pH 7.4), the overexpressed proteins were eluted with elution buffer (20 mM Na3PO4, 300 mM NaCl, 250 mM imidazole, PH 7.4). The elution was collected and concentrated using an Amicon Ultra-0.5 Centrifugal Filter Device in storage buffer (100 mM HEPES, 10 mM MgCl2, 7.7 mM KCl, pH 7.0).
In general terms: Immunoblotting shows a protein as a band on a membrane.

For series [3], the system named is PykF, GpmA, Mdh. The following applies: 15 μM CobB, 20 μM substrate, 25 °C, 10 h. The method, then:
The purified recombinant YiaC (15 μM) and candidate substrate proteins (GltA, PncB, 20 μM) were incubated in YiaC reaction buffer at 25 °C for 10 h. […] The reaction products were analyzed by Western blotting with anti-lactylation.

In series [4] the target is T1, CobB. The following applies: 50 μM peptide, 1 μM CobB, pH 8.5, 37 °C, 2 h; with 1 mM NAD^+ unless stated.
The subject of series [5] is PykF. The following applies: in vitro; result in words.
Setting [6] is: Deacetylation, Michaelis-Menten best fit, Supplementary Data 2.
Setting [7] is: deacetylation, AETAEK(ac)YGDEQVK.
The mark [8] stands for this setting: delactylation, AETAEK(la)YGDEQVK.

B1: CobB: NAD-dependent deacylase; lysine delactylase (protein)
chain: T1 sequence (P75960 1-279)
modifications: left off: His tag (from the vector pET28a and the Ni-NTA purification), end not stated, state not stated
notes: NAD-dependent deacylase; lysine delactylase
As a reminder, the Km is the concentration of substrate that gives half-maximal velocity. The term kcat denotes the maximal rate divided by the concentration of active sites. Usually kcat/Km stands for the turnover number divided by the Michaelis constant. As for B1, the Km in series [1] (setting [6]) was found to be 25.4 µM. Moreover, the Vmax in series [1] (setting [6]) stood at 0.01822; in series [1] (Delactylation, Michaelis-Menten best fit, Supplementary Data 2), 0.02447. Moreover, the kcat in series [1] (setting [7]) turned out to be 0.97 ± 0.02 s⁻¹; in series [1] (setting [8]), 0.99 ± 0.04 s⁻¹. The results for the kcat/Km in series [1] (setting [7]) and in series [1] (setting [8]) were 52000 M⁻¹ s⁻¹ and 39000 M⁻¹ s⁻¹, respectively. The Kla level result in series [2] was “significant decrease in Kla levels”. In addition, in series [3], the “delactylation of candidate proteins” value was “can clearly delactylate pyruvate kinase I (PykF), 2,3-bisphosphoglycerate-dependent phosphoglycerate mutase (GpmA) and malate dehydrogenase (Mdh) in vitro”. The “delactylation of peptide by CobB” value in series [4] is listed as “efficiently catalyzed the hydrolysis of the lactyl peptide in the presence of NAD^+; also recorded: the delactylated peptide was not detected in the reaction without NAD^+”. Moreover, the “PykF activity after CobB erasing K382la” value in series [5] is “enhanced PykF activity in vitro”.
